Measured values from patent US20240182561A1, “CALCIUM VOLTAGE-GATED CHANNEL AUXILIARY SUBUNIT GAMMA 1 (CACNG1) BINDING PROTEINS AND CACNG1-MEDIATED DELIVERY TO SKELETAL MUSCLE” (Regeneron Pharmaceuticals, Inc., priority 2022, published 2024).

What was measured:
CACNG1^Hu/Hu myofibers = assay: Antibody binding to single myofibers ex vivo; parameters: species or system mouse; settings: 100 nM antibody, 30 minutes; FIG. 2
Description: (§1) Single myofibers were isolated from either wildtype mice, mice that were homozygous for the deletion of CACNG1 (referred to as CACNG1 knockout mice), or mice that were homozygous for the expression of human CACNG1 in place of mouse CACNG1 (referred to as CACNG1^Hu/Hu). The gastrocnemius muscle was removed, collagenase digested, and single myofibers were isolated, washed, and incubated overnight at 37° C. at 5% CO2, in DMEM+10% horse serum. Following overnight incubation, single myofibers were incubated with 100 nM of each CACNG1 antibody or an isotype control antibody for 30 minutes. Myofibers were then washed twice in DMEM+10% horse serum, and subsequently incubated with 10 μg/mL of fluorescent-conjugated secondary antibodies for 30 minutes, washed twice in DMEM+10% horse serum, and then fixed with 4% paraformaldehyde (PFA) for 15 minutes at room temperature. Single fibers were then washed twice with PBS, stained with Hoechst for 5 minutes, washed once more with PBS, then transferred to microscope slides, cover slipped, and imaged using a Zeiss LSM 710 confocal microscope.

[1] = system: wildtype or CACNG1 knockout myofibers; assay: Antibody binding to single myofibers ex vivo; parameters: species or system mouse; settings: 100 nM antibody, 30 minutes; FIG. 2
Description: as §1

C2C12 mouse myotubes = assay: High content imaging-based cell binding assay; settings: Table 11-1, C2C12; NB = no binding detected
Description: (§2) To test the ability of anti-CACNG1 antibodies described herein to bind, internalize, and deliver payloads, cell binding and indirect cell killing assays were developed with primary human skeletal myoblasts (Cook Myosite Cat #SkMDC SK-1111), C2C12 mouse myoblasts (ATCC Cat #CRL-1772), and HEK293 cells engineered to express human and mouse CACNG1 (HEK293/hCACNG1 and HEK293/mCACNG1, respectively). To generate the HEK293/hCACNG1 and HEK293/mCACNG1 cell lines, FuGEGE 6 (Promega, Cat #E2691/5/3) was used to transfect HEK293HZ cells with a human CACNG1 (hCACNG1; amino acid M1-H222, Accession #NP_000718.1) or mouse CACNG1 (mCACNG1; amino acid M1-H223, Accession #NP_031608.1) expression vector. HEK293HZ is a highly transfectable subclone of HEK293 cells (1) authenticated via STIR (short tandem repeat) profiling to be 81% identical to HEK293 cells sourced from ATCC). The HEK293HZ cell line was maintained in DMEM+10% FBS+1% L-glutamine/penicillin/streptomycin, while HEK293/hCACNG1 and HEK293/mCACNG1 cell lines were maintained in DMEM+10% FBS+1% L-glutamine/penicillin/streptomycin+500 ug/mL G418. […]
(§3) Relative binding of anti-CACNG1 antibodies was assessed across the entire panel of cell lines via imaging analysis. […] Images were acquired with a 10× objective on the Opera Phenix (Perkin Elmer) and relative fluorescence units (RFU) was determined using Harmony software (Perkin Elmer).

HEK293/mCACNG1 = target: T1, HEK293/mCACNG1 (Mus musculus, UniProt O70578); assay: High content imaging-based cell binding assay; settings: Table 11-1, 293/mCACNG1; NB = no binding detected
T1 construct: mouse CACNG1 (mCACNG1); expressed in transfected cells
T1 sequence (O70578 1-223): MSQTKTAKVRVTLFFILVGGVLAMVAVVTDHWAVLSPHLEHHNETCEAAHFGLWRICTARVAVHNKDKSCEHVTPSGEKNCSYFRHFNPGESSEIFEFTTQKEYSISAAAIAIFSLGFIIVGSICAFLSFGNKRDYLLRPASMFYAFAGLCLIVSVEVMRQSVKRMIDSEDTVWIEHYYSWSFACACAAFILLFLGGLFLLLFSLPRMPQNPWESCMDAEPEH
Description: as §2, §3

HEK293 Hz = assay: High content imaging-based cell binding assay; parameters: species or system human; settings: Table 11-1, HEK293 Hz; NB = no binding detected
Description: as §2, §3

HEK293 = assay: Indirect (secondary) cell killing assay; assay type: cell-based, human; settings: Table 11-3; maximum % kill
Description: as §2, with “ATCC).” for “ATCC). The HEK293HZ cell line was maintained in DMEM+10% FBS+1% L-glutamine/penicillin/streptomycin, while HEK293/hCACNG1 and HEK293/mCACNG1 cell lines were maintained in DMEM+10% FBS+1% L-glutamine/penicillin/streptomycin+500 ug/mL G418.”
An indirect cell killing assay was used to assess the ability of anti-CACNG1 antibodies to internalize and deliver payloads into cells. In vitro cytotoxicity of the anti-CACNG1 antibodies alone or in combination with Fab anti-human Fc or Fab anti-mouse Fc secondary antibodies conjugated to Duocarmycin DM (Moradec, Cat #AH-202-DD-50 or Cat #AM-202-DD-50) were evaluated using the CellTiter-Glo 2.0 Assay Kit (Promega, Cat #G9243), in which the quantity of ATP present is used to determine the number of viable cells in culture. […]

human CACNG1 nanodisc = target: T2, human CACNG1 nanodisc (Homo sapiens, UniProt Q06432); assay: Biacore binding kinetics of anti-CACNG1 antibodies to surface-captured human CACNG1 nanodisc; settings: 25° C., 1:1 binding model
T2 construct: PΔΔCt RE (C); Flag (C)
T2 sequence (Q06432 whole entry): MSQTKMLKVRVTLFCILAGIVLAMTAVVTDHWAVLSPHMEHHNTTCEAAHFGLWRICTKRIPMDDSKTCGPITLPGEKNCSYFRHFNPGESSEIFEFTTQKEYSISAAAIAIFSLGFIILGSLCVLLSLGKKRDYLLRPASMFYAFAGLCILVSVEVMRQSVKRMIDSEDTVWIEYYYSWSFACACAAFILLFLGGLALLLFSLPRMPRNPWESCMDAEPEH
Description: This Example relates to evaluation of binding kinetics of purified anti-CACNG1 antibodies described herein to a human CACNG1 nanodisc capture surface using real-time surface plasmon resonance biosensor technology with a Biacore T200 instrument.
Equilibrium dissociation constants (KD values) for nanodisc embedded human CACNG1 expressed with a C-terminal […] tag (human CACNG1 nanodisc; concentration 0.82 mg/ml) binding to purified anti-CACNG1 antibodies were determined using a real-time surface plasmon resonance biosensor technology with a Biacore T200 instrument. The CM5 Biacore sensor surface was derivatized by amine coupling with a monoclonal mouse anti-His antibody (Cytiva; Marlborough, MA). All Biacore binding studies were performed in a buffer composed of 0.01M HEPES, 0.15M NaCl, 1 mM CaCl2, 0.5 mM MgCl2, pH 7.4 (HBS-N++ running buffer). […]
The specific SPR-Biacore sensorgrams were obtained by a double referencing procedure. […] Kinetic association (ka) and dissociation […] rate constants were determined by fitting the real-time sensorgrams to a 1:1 binding model using Scrubber v2.0c curve fitting software. Binding dissociation equilibrium constants (KD) and dissociative half-lives (t %) were calculated from the kinetic rate constants as: […]

Molecule	binding to CACNG1^Hu/Hu myofibers ex vivo (CACNG1^Hu/Hu myofibers)	binding to wildtype or CACNG1 knockout myofibers [1]	EC50 (C2C12 mouse myotubes)	EC50 (HEK293/mCACNG1)	EC50 (HEK293 Hz)	% KILL (HEK293)	ka (human CACNG1 nanodisc)	kd (human CACNG1 nanodisc)
H1M31941N (antibody) heavy: QVQLVQSGAEVKKPGASVKVSCKASGYAFTTYGITWVRQAPGQGLEWMGWISAYNGNTNYAEKVQGRFTMTTDTSTNTAYMELRSLRSDDTAVYFCARKGHYGSGTYYNPFGFDFWGQGTMVTVSSAKTTPPSVYPLAPGSAAQTNSMVTLGCLVKGYFPEPVTVTWNSGSLSSGVHTFPAVLQSDLYTLSSSVTVPSSTWPSETVTCNVAHPASSTKVDKKIVPRDCGCKPCICTVPEVSSVFIFPPKPKDVLTITLTPKVTCVVVDISKDDPEVQFSWFVDDVEVHTAQTQPREEQFNSTFRSVSELPIMHQDWLNGKEFKCRVNSAAFPAPIEKTISKTKGRPKAPQVYTIPPPKEQMAKDKVSLTCMITDFFPEDITVEWQWNGQPAENYKNTQPIMDTDGSYFVYSKLNVQKSNWEAGNTFTCSVLHEGLHNHHTEKSLSHSPGK light: EIMLMQSPGTLSLSPGERATLSCRASQSVSSSYLAWYQQKPGQAPRLLIYGASSRATDIPDRFSGSGSGTDFTLTISRLEPEDFAVYFCQQYYGSPWTFGQGTKVEIKRADAAPTVSIFPPSSEQLTSGGASVVCFLNNFYPKDINVKWKIDGSERQNGVLNSWTDQDSKDSTYSMSSTLTLTKDEYERHNSYTCEATHKTSTSPIVKSFNRGEC	demonstrated binding	did not bind	> 100 nM	> 100 nM	> 100 nM	0.0%	–	–
H2aM31941N: anti-CACNG1 antibody; HCVR SEQ ID NO: 25, LCVR SEQ ID NO: 29, HC SEQ ID NO: 151, LC SEQ ID NO: 152 (antibody) heavy: QVQLVQSGAEVKKPGASVKVSCKASGYAFTTYGITWVRQAPGQGLEWMGWISAYNGNTNYAEKVQGRFTMTTDTSTNTAYMELRSLRSDDTAVYFCARKGHYGSGTYYNPFGFDFWGQGTMVTVSSAKTTPPSVYPLAPGSAAQTNSMVTLGCLVKGYFPEPVTVTWNSGSLSSGVHTFPAVLQSDLYTLSSSVTVPSSTWPSETVTCNVAHPASSTKVDKKIVPRDCGCKPCICTVPEVSSVFIFPPKPKDVLTITLTPKVTCVVVDISKDDPEVQFSWFVDDVEVHTAQTQPREEQFNSTFRSVSELPIMHQDWLNGKEFKCRVNSAAFPAPIEKTISKTKGRPKAPQVYTIPPPKEQMAKDKVSLTCMITDFFPEDITVEWQWNGQPAENYKNTQPIMDTDGSYFVYSKLNVQKSNWEAGNTFTCSVLHEGLHNHHTEKSLSHSPGK light: EIMLMQSPGTLSLSPGERATLSCRASQSVSSSYLAWYQQKPGQAPRLLIYGASSRATDIPDRFSGSGSGTDFTLTISRLEPEDFAVYFCQQYYGSPWTFGQGTKVEIKRADAAPTVSIFPPSSEQLTSGGASVVCFLNNFYPKDINVKWKIDGSERQNGVLNSWTDQDSKDSTYSMSSTLTLTKDEYERHNSYTCEATHKTSTSPIVKSFNRGEC	–	–	–	–	–	–	342000 M⁻¹ s⁻¹	0.000406 s⁻¹
